Experimental data published in article PMC9352680, “A comprehensive thermodynamic model for RNA binding by the Saccharomyces cerevisiae Pumilio protein PUF4”.
Positions count from the first letter of the chain named. In names and notes the source's numbering stands.

B1: Id_ii_S4_P4E.2_K4.1_C4.2_[C-2A]_[T-1G]_H4.1_A4.1_F4.1_T4.2_[G10T]_[T11C] (ssRNA)
RNA: UUUGACAACUGAUCGUUCUUUCUAGUGUAUAUUAUCUUCUUUCUCGAUCAGUUGUCUUU
B2: Id_ii_S4_P4E.3_K4.2_C4.2_[C-2G]_H4.2_A4.1_F4.1_T4.2_[G10A] (ssRNA)
RNA: B1 RNA with A24G, G25U, G27A, U35A, C36U
B3: Id_ii_S4_P4E.2_K4.1_C4.2_[C-2A]_[T-1A]_H4.1_A4.1_F4.1_T4.2_[G10A] (ssRNA)
RNA: B1 RNA with G25A, U35A, C36U
B4: Id_ii_S4_P4E.2_K4.1_C4.2_[T-1G]_H4.1_A4.1_F4.1_T4.2_[G10A]_[T11G] (ssRNA)
RNA: B1 RNA with A24C, U35A, C36G
B5: Id_ii_S4_P4E.2_K4.1_C4.2_[C-2A]_[T-1G]_H4.1_A4.1_F4.1_T4.2_[G10A]_[T11A] (ssRNA)
RNA: B1 RNA with U35A, C36A
B6: Id_ii_S4_P4E.2_K4.1_C4.2_[C-2A]_[T-1C]_H4.1_A4.1_F4.1_T4.2_[G10C] (ssRNA)
RNA: B1 RNA with G25C, U35C, C36U
B7: Id_ii_S4_P4E.2_K4.1_C4.2_[C-2T]_H4.1_A4.1_F4.1_T4.2_[G10T]_[T11G] (ssRNA)
RNA: B1 RNA with A24U, G25U, C36G
B8: Id_ii_S4_P4E.2_K4.1_C4.2_[T-1G]_H4.1_A4.1_F4.1_T4.2_[G10T] (ssRNA)
RNA: B1 RNA with A24C, C36U
B9: Id_ii_S4_P4E.2_K4.1_C4.2_H4.1_A4.1_F4.1_T4.2_[G10C] (ssRNA)
RNA: B1 RNA with A24C, G25U, U35C, C36U
B10: Id_ii_S4_P4E.2_K4.1_C4.2_[T-1A]_H4.1_A4.1_F4.1_T4.2_[T11G] (ssRNA)
RNA: B1 RNA with A24C, G25A, U35G, C36G
B11: Id_ii_S4_P4E.2_K4.1_C4.2_[T-1G]_H4.1_A4.1_F4.1_T4.2 (ssRNA)
RNA: B1 RNA with A24C, U35G, C36U
B12: Id_ii_S4_P4E.2_K4.1_C4.2_[C-2T]_H4.1_A4.1_F4.1_T4.2_[G10A]_[T11G] (ssRNA)
RNA: B1 RNA with A24U, G25U, U35A, C36G
B13: Id_ii_S4_P4E.2_K4.1_C4.2_[C-2T]_H4.1_A4.1_F4.1_T4.2 (ssRNA)
RNA: B1 RNA with A24U, G25U, U35G, C36U
B14: Id_ii_S4_P4E.2_K4.1_C4.2_[C-2G]_H4.1_A4.1_F4.1_T4.2_[G10C]_[T11C] (ssRNA)
RNA: B1 RNA with A24G, G25U, U35C
B15: Id_ii_S4_P4E.2_K4.1_C4.2_[C-2A]_[T-1A]_H4.1_A4.1_F4.1_T4.2_[G10T] (ssRNA)
RNA: B1 RNA with G25A, C36U
B16: Id_ii_S4_P4E.3_K4.2_C4.2_[C-2T]_[T-1G]_H4.2_A4.1_F4.1_T4.2_[G10T]_[T11C] (ssRNA)
RNA: B1 RNA with A24U, G27A
B17: Id_ii_S4_P4E.3_K4.2_C4.2_[C-2T]_[T-1C]_H4.2_A4.1_F4.1_T4.2_[G10T]_[T11A] (ssRNA)
RNA: B1 RNA with A24U, G25C, G27A, C36A
B18: Id_ii_S4_P4E.2_K4.1_C4.2_H4.1_A4.1_F4.1_T4.2_[G10T] (ssRNA)
RNA: B1 RNA with A24C, G25U, C36U
B19: Id_ii_S4_P4E.2_K4.1_C4.2_[C-2T]_[T-1A]_H4.1_A4.1_F4.1_T4.2_[G10A]_[T11C] (ssRNA)
RNA: B1 RNA with A24U, G25A, U35A
B20: Id_ii_S4_P4E.2_K4.1_C4.2_[C-2A]_H4.1_A4.1_F4.1_T4.2_[G10T] (ssRNA)
RNA: B1 RNA with G25U, C36U
B21: Id_ii_S4_P4E.2_K4.1_C4.2_[C-2T]_H4.1_A4.1_F4.1_T4.2_[T11C] (ssRNA)
RNA: B1 RNA with A24U, G25U, U35G
B22: Id_ii_S4_P4E.2_K4.1_C4.2_[T-1C]_H4.1_A4.1_F4.1_T4.2_[G10T]_[T11G] (ssRNA)
RNA: B1 RNA with A24C, G25C, C36G
B23: Id_ii_S4_P4E.3_K4.2_C4.2_[C-2T]_[T-1G]_H4.2_A4.1_F4.1_T4.2_[G10T] (ssRNA)
RNA: B1 RNA with A24U, G27A, C36U
B24: Id_ii_S4_P4E.2_K4.1_C4.2_[C-2T]_[T-1C]_H4.1_A4.1_F4.1_T4.2_[G10T]_[T11C] (ssRNA)
RNA: B1 RNA with A24U, G25C
B25: Id_ii_S4_P4E.2_K4.1_C4.2_[C-2A]_H4.1_A4.1_F4.1_T4.2_[G10A]_[T11A] (ssRNA)
RNA: B1 RNA with G25U, U35A, C36A
B26: Id_ii_S4_P4E.3_K4.2_C4.2_[C-2T]_[T-1C]_H4.2_A4.1_F4.1_T4.2_[G10T]_[T11C] (ssRNA)
RNA: B1 RNA with A24U, G25C, G27A
B27: Id_ii_S4_P4E.2_K4.1_C4.2_[C-2T]_[T-1A]_H4.1_A4.1_F4.1_T4.2_[T11C] (ssRNA)
RNA: B1 RNA with A24U, G25A, U35G
B28: Id_ii_S4_P4E.2_K4.1_C4.2_[C-2A]_[T-1C]_H4.1_A4.1_F4.1_T4.2_[G10T]_[T11A] (ssRNA)
RNA: B1 RNA with G25C, C36A
B29: Id_ii_S4_P4E.2_K4.1_C4.2_[C-2T]_H4.1_A4.1_F4.1_T4.2_[G10A]_[T11C] (ssRNA)
RNA: B1 RNA with A24U, G25U, U35A

The binders below were run against T1, PUF4 RNA-binding domain (Saccharomyces cerevisiae, UniProt P25339 537-888) (assay: Mg; RNA-MaP; 20 mM Na-HEPES pH 7.4, 30 mM KOAc, 0.75 mM MgCl2, 0.1% Tween-20, 5% glycerol, 0.1 mg/mL BSA, 2 mM DTT; 25 C; 0.0125-409.6 nM protein). Conditions: tags: N-His6-TEV cleaved; C-SNAP kept, Cy3B-labelled; label: tethered on chip by stalled RNA polymerase.
T1 sequence: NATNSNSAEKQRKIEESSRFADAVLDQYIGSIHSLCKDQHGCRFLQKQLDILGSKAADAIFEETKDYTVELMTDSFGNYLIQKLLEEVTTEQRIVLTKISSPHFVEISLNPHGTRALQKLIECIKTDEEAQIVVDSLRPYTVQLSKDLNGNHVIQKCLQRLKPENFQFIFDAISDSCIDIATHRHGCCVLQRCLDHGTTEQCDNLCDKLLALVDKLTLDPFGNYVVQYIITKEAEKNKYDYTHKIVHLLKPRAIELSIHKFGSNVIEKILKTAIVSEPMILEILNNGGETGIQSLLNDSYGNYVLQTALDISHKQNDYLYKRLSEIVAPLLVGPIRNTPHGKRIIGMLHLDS

First: B1
Second: B2
The Kd of the first is 29-fold lower: 2.16 nM for the first, 62 nM for the second.

B3 and B4 are within 1.5-fold of each other in Kd: 1.37 nM for the first, 1.39 nM for the second.

B5 and B6 are within 1.5-fold of each other in Kd: 1.62 nM for the first, 1.24 nM for the second.

Going from B7 to B8, the Kd falls from 0.308 nM to 0.196 nM (1.6-fold).

Compared with B9, B10 is 2.6-fold higher in Kd: 0.434 nM for the first, 1.11 nM for the second. The first binds more tightly here.

Going from B11 to B12, the Kd rises from 0.364 nM to 3.49 nM (9.6-fold).

Compared with B13, B14 is 4.8-fold higher in Kd: 0.37 nM for the first, 1.76 nM for the second. The first binds more tightly here.

First: B15
Second: B16
The Kd of the first is 2.6-fold lower: 1.56 nM for the first, 3.99 nM for the second.

Going from B17 to B18, the Kd falls from 12 nM to 0.116 nM (100-fold).

Going from B19 to B20, the Kd falls from 1.15 nM to 0.312 nM (3.7-fold).

Compared with B21, B22 is 2-fold lower in Kd: 0.339 nM for the first, 0.173 nM for the second. The second binds more tightly here.

Compared with B23, B24 is 5.7-fold lower in Kd: 1.83 nM for the first, 0.319 nM for the second.

First: B25
Second: B26
The Kd of the first is 3.8-fold lower: 1.35 nM for the first, 5.07 nM for the second.

First: B27
Second: B28
The Kd of the first is 1.7-fold lower: 0.368 nM for the first, 0.625 nM for the second. The first binds more tightly here.

B29 gave a Kd of 0.493 nM.
